We go through 55 molecules from article PMC12416549 (2024).

B1: K48R (designed binder)
chain: SMEEEVEKAAKEYEKKKKEAIEKHLEKLKAKDKEAAERFLKELEEAAREYAKDEAKTMSEEEAKRRAKKYKEKVLLSELSEEEQKEIKEAEEKLVRTILKYVEEAAK
B2: E78M (designed binder)
chain: B1 chain with R48K, E78M
B3: R66T (designed binder)
chain: B1 chain with R48K, R66T
B4: Y50S (designed binder)
chain: B1 chain with R48K, Y50S
B5: L79K (designed binder)
chain: B1 chain with R48K, L79K
B6: A105M (designed binder)
chain: B1 chain with R48K, A105M
B7: A35Y (designed binder)
chain: B1 chain with A35Y, R48K
B8: L28P (designed binder)
chain: B1 chain with L28P, R48K
B9: K23Y (designed binder)
chain: B1 chain with K23Y, R48K
B10: R38W (designed binder)
chain: B1 chain with R38W, R48K
B11: L25F (designed binder)
chain: B1 chain with L25F, R48K
B12: E49D (designed binder)
chain: B1 chain with R48K, E49D
B13: A55D (designed binder)
chain: B1 chain with R48K, A55D
B14: S80T (designed binder)
chain: B1 chain with R48K, S80T
B15: D32G (designed binder)
chain: B1 chain with D32G, R48K
B16: D32M (designed binder)
chain: B1 chain with D32M, R48K
B17: L79Y (designed binder)
chain: B1 chain with R48K, L79Y
B18: R66H (designed binder)
chain: B1 chain with R48K, R66H
B19: H24V (designed binder)
chain: B1 chain with H24V, R48K
B20: E19R (designed binder)
chain: B1 chain with E19R, R48K
B21: L43N (designed binder)
chain: B1 chain with L43N, R48K
B22: E91K (designed binder)
chain: B1 chain with R48K, E91K
B23: K100W (designed binder)
chain: B1 chain with R48K, K100W
B24: E3N (designed binder)
chain: B1 chain with E3N, R48K
B25: R66K (designed binder)
chain: B1 chain with R48K, R66K
B26: S77C (designed binder)
chain: B1 chain with R48K, S77C
B27: R38F (designed binder)
chain: B1 chain with R38F, R48K
B28: K16Q (designed binder)
chain: B1 chain with K16Q, R48K
B29: E54A (designed binder)
chain: B1 chain with R48K, E54A
B30: A30W (designed binder)
chain: B1 chain with A30W, R48K
B31: Y50W (designed binder)
chain: B1 chain with R48K, Y50W
B32: V74G (designed binder)
chain: B1 chain with R48K, V74G
B33: K107E (designed binder)
chain: B1 chain with R48K, K107E
B34: R96M (designed binder)
chain: B1 chain with R48K, R96M
B35: Q84N (designed binder)
chain: B1 chain with R48K, Q84N
B36: M2G (designed binder)
chain: B1 chain with M2G, R48K
B37: K27N (designed binder)
chain: B1 chain with K27N, R48K
B38: E83H (designed binder)
chain: B1 chain with R48K, E83H
B39: L76K (designed binder)
chain: B1 chain with R48K, L76K
B40: I87G (designed binder)
chain: B1 chain with R48K, I87G
B41: E5W (designed binder)
chain: B1 chain with E5W, R48K
B42: E92C (designed binder)
chain: B1 chain with R48K, E92C
B43: S59R (designed binder)
chain: B1 chain with R48K, S59R
B44: K16M (designed binder)
chain: B1 chain with K16M, R48K
B45: S1C (designed binder)
chain: B1 chain with S1C, R48K
B46: K68F (designed binder)
chain: B1 chain with R48K, K68F
B47: A106W (designed binder)
chain: B1 chain with R48K, A106W
B48: V6Y (designed binder)
chain: B1 chain with V6Y, R48K
B49: E22I (designed binder)
chain: B1 chain with E22I, R48K
B50: E54C (designed binder)
chain: B1 chain with R48K, E54C
B51: E12C (designed binder)
chain: B1 chain with E12C, R48K
B52: A55L (designed binder)
chain: B1 chain with R48K, A55L
B53: A30I (designed binder)
chain: B1 chain with A30I, R48K
B54: K27M (designed binder)
chain: B1 chain with K27M, R48K
B55: A67M (designed binder)
chain: B1 chain with R48K, A67M

Where a chain is given by its changes, count along the chain named. In names and notes the source's numbering stands.

The assay concerns the target T1, TNFR1 (Homo sapiens, UniProt P19438).
T1 chain: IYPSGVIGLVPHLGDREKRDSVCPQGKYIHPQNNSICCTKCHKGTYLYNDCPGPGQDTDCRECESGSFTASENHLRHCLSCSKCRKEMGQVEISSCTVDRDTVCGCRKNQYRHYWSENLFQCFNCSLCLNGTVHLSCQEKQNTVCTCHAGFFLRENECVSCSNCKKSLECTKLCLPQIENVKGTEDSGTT
As to the kind of experiment: yeast display SC50.
In the case of B1, the “apparent Kd (screen)” value came out at 0.593 nM.

On to B2, for which the “apparent Kd (screen)” value is 0.956 nM.

As for B3, the “apparent Kd (screen)” value amounted to 16.7 nM.

Take B4: the “apparent Kd (screen)” value amounted to 5.31 nM.

As to B5, the “apparent Kd (screen)” value came out at 0.304 nM.

On to B6, for which the “apparent Kd (screen)” value amounted to 3 nM.

On to B7, for which the “apparent Kd (screen)” value stood at 1.27 nM.

As for B8, the “apparent Kd (screen)” value turned out to be 13.8 nM.

In the case of B9, the “apparent Kd (screen)” value worked out at 0.368 nM.

In the case of B10, the “apparent Kd (screen)” value stood at 0.446 nM.

Take B11: the “apparent Kd (screen)” value was 0.49 nM.

Regarding B12, the “apparent Kd (screen)” value came out at 4.39 nM.

As for B13, the “apparent Kd (screen)” value was 12.5 nM.

In the case of B14, the “apparent Kd (screen)” value is 1.27 nM.

Consider B15, for which the “apparent Kd (screen)” value was 0.593 nM.

For B16, the “apparent Kd (screen)” value came out at 5.84 nM.

As for B17, the “apparent Kd (screen)” value stood at 12.5 nM.

Consider B18, for which the “apparent Kd (screen)” value stood at 24.4 nM.

As for B19, the “apparent Kd (screen)” value was 1.05 nM.

As for B20, the “apparent Kd (screen)” value turned out to be 0.446 nM.

Take B21: the “apparent Kd (screen)” value turned out to be 0.446 nM.

On to B22, for which the “apparent Kd (screen)” value amounted to 11.4 nM.

Take B23: the “apparent Kd (screen)” value came out at 1.05 nM.

For the molecule B24, the “apparent Kd (screen)” value came to 2.73 nM.

In the case of B25, the “apparent Kd (screen)” value was 10.4 nM.

On to B26, for which the “apparent Kd (screen)” value was found to be 1.54 nM.

In the case of B27, the “apparent Kd (screen)” value worked out at 1.05 nM.

For the molecule B28, the “apparent Kd (screen)” value came out at 0.718 nM.

B29: the “apparent Kd (screen)” value was found to be 3.63 nM.

With B30, the “apparent Kd (screen)” value amounted to 0.593 nM.

B31: the “apparent Kd (screen)” value turned out to be 7.07 nM.

On to B32, for which the “apparent Kd (screen)” value was 1.05 nM.

Take B33: the “apparent Kd (screen)” value amounted to 1.54 nM.

Take B34: the “apparent Kd (screen)” value was determined as 1.05 nM.

With B35, the “apparent Kd (screen)” value was found to be 2.48 nM.

For the molecule B36, the “apparent Kd (screen)” value came out at 0.446 nM.

With B37, the “apparent Kd (screen)” value is 0.653 nM.

B38: the “apparent Kd (screen)” value was found to be 1.27 nM.

Consider B39, for which the “apparent Kd (screen)” value turned out to be 3.3 nM.

Regarding B40, the “apparent Kd (screen)” value was found to be 13.8 nM.

Regarding B41, the “apparent Kd (screen)” value was 0.539 nM.

As to B42, the “apparent Kd (screen)” value worked out at 6.43 nM.

Take B43: the “apparent Kd (screen)” value stood at 1.05 nM.

Turning to B44, the “apparent Kd (screen)” value came to 0.446 nM.

Consider B45, for which the “apparent Kd (screen)” value was 15.2 nM.

Consider B46, for which the “apparent Kd (screen)” value is 3 nM.

Turning to B47, the “apparent Kd (screen)” value came out at 0.368 nM.

B48: the “apparent Kd (screen)” value was 0.446 nM.

On to B49, for which the “apparent Kd (screen)” value worked out at 1.16 nM.

With B50, the “apparent Kd (screen)” value turned out to be 11.4 nM.

Take B51: the “apparent Kd (screen)” value was 0.956 nM.

Turning to B52, the “apparent Kd (screen)” value was 0.593 nM.

Take B53: the “apparent Kd (screen)” value is 0.653 nM.

Take B54: the “apparent Kd (screen)” value was determined as 1.05 nM.

B55: the “apparent Kd (screen)” value was determined as 7.78 nM.
